Experimental data as given in patent US20220218001A1, “REDOX ENZYMES IN ANIMAL FEED COMPOSITIONS” (Novozymes A/S, priority 2019, published 2022).

B1: CAT: catalase feed enzyme: SEQ ID NO 7 in Examples 1-2; in Example 4 probably treatment 6 (Product C, SEQ ID NO 250) (protein)
chain: MRHFWLLPAVAGIAGAQCPYLSGEMSFTQEQDNAGDTIEVTEQTIDNTLYVNDTGSYMTTDFGTPISDQYSLKAGRRGPTLLEDFIFRQKLQRFDHERVPERVVHARGAGAYGTFKSYADWSNVTAADFLSANEKETPMFCRFSTVVGFRGSVDTARDVHGHACRFYTDEGNYDIVGINFAPFFIQDAIQFPDLVHAIKPMPNNEIPQAATAHTSAWDFFSQQSTALHSALWLMSGNGIPRSFRHMNGYGVHSFRFVAANGTSKVVRYRWKSQQGVASLVWEEAQAAAGKNSDYHRQDLYNAIANGHYPKYELQAQIMDEADMLRFGFDLLDPTKLVPEEVVPYTPLGMMELNANPTNYFAEVEQAGFQPGHVVPGIDFTDDPLLQGRLFSYLDTQLTRHGGPNFEQIPVNRPRKPVHNNNRDGFGQQQIPTNNWAYTPNTMSNGYPMQANQTHGHGFFTSPYRYASGHLIREPSPTFHDHWSQPAMFWNSLIPAEQQMVVNAIVFENSKVNSPHVRKNVVNQLNMVNNNLAVRVARGLGLDEPSPNPTYYTSNKTSNVGTFGKPLLSIEGLQVGFLASNSHPESIKQGQAMAAQFSAAGVDLNIVTEAYADGVNTTYALSDAIDFDALIIADGVQSLFASPSLANQMNSTATSTLYPPARPYQILVDSFRYGKPVAAVGSGSAALKNAGIDTSRSGVYTGSSETTENIAKEVLKGLYTFRFVDRFALDE
modifications: Aspergillus niger; mat_peptide (1)..(740)

Tests used:
[1] = commercial SODs from Sigma set as specific activity reference; cited from earlier work
[2] = Gastric stability assay of SODs; format: in vitro ADME; details: 37° C., reference activity at pH7.0 without stress
Procedure: Gastric stability was assayed with artificial gastric juice as stress condition. 20 μl SOD with appropriate dilution was added into 180 μl stress buffer (100 mM NaCl, 0.0013M HCl at pH3.0). The stress buffer with pepsin was prepared by adding 1.11 mg/ml pepsin (from porcine gastric mucosa, P7000, Sigma, 474 U/mg). The mixture was incubated at 37° C. in thermomixer for 0, 15, 30, 45, 60, 90, and 120 minutes separately. 10 μl sample extracted from the mixture was added into 90 μl activity buffer (K2HPO4/KH2PO4 mixed with final concentration of 100 mM PBS at pH7.0) as stop mixture. Then 20 μl stop mixture was added into 200 μl WST solution (or CytoC solution at pH7.8), and finally 20 μl coupled enzyme solution from kit was added to measure absorbance. The absorbance was measured at 450 nm for Sigma SOD kit (or 550 nm at pH 7.8) for 20 minutes at 37° C. (interval 40 sec, shake before first read). The activity at pH7.0 without stress condition was set as reference, and the residual activity at stress condition (pH3.0, pH3.0+pepsin) compared with reference was calculated as relative stability.

[3] = tested on: reactive oxygen metabolites (ROM) and Plasma antioxidant capability (PAT); experiment: Oxidative stress index FRAS5 (d-ROM, PAT) in plasma; format: in vivo, piglets; details: piglet plasma
Procedure: An oxidative stress index was calculated as the ratio of reactive oxygen metabolites (ROM) and Plasma antioxidant capability (PAT) determined in plasma and liver lysate samples. ROM and
PAT were analyzed using commercially methods (d-ROM fast test and PAT test) on FRAS5 instrument (Innovatics Laboratory, Philadelphia, USA). For d-ROM test, 10 μL of sample was mixed with an acidic buffer. Then, a chromogen was added, and measured photometrically at 505 nm. The results are expressed in UCarr (1 UCarr=0.08 mg of H2O2/dl). For PAT test, 10 μl of sample was added in a colored solution (mix of source ferric ions and chromogen). The intensity of chromatic change was measured at 505 nm. The results are expressed in UCor (1 UCor=1.4 μM of Vitamin C equivalent). The oxidative stress index was calculated as the ratio of d-ROMs test value to PAT test value.
(§1) ANOVA was performed for plasmatic parameters and student test was calculated to evaluate the significance of the differences observed in gene expression.

[4] = Nutritional model in piglets: growth performance (FCR); format: in vivo; details: d 0-42, piglets, vs NC (22% CP)
Procedure: Experimental Unit: Slatted Floor Pens, 4 piglets per pen (2 barrows & 2 gilts per pen)
Feed Type: Starter (Day 0-21) and Grower (Day 21-42). MASH feed is employed, using a corn-soybean type commercial ration formulation with an increase of 5-6% crude protein compared to normal commercial rations. Test material is added to the feed beginning on Day 0 and continuing through Day 42.
Replication/piglets per treatment: Treatments 1-8 fed to 12 replicates each of 4 piglets (2 barrows+2 gilts) per replicate.
Piglet Source: Piglets (post-weaned, at 21 days of age, called Day 0) are collected in early am (day of placement or Day 0), weighed (2 barrows & 2 gilts per pen), and assigned to each experimental pen. Each piglet is weighed individually and assigned to a pen, with very high and very low body weights excluded from the study. After all piglets are assigned to a pen, the body weights are checked to ensure no treatment is more than 1 standard deviation from another treatment.

Glutathione peroxidase = experiment: Plasma GPx activity (GPx determination KIT); format: in vivo; details: piglets, day 42
Procedure: The concentration of total proteins was determined in liver lysate and plasma, using the Pierce™ BCA Protein Assay Kit (Thermo Fisher Scientific, Illkirch-Graffenstaden, France). The samples were processed following the supplier's recommendations. Plasma samples were diluted 100 times. 25 μL of standards or samples were added to 200 μL of working reagent and incubated 30 minutes at 37° C. The colorimetric intensity was measured at 562 nm. Results are expressed in μg of total protein per mL of sample.
The activity of the Glutathione peroxidase was determined using the GPx determination KIT (abcamab102530). Briefly, 40 μL of the colorimetric reaction mix was added to 100 μL of standards and 10 μL of cumene hydroperoxide was added to the standards and to the 50 μL of samples (Plasma samples were adjusted to bring 600 μg of total protein in the reaction). The absorbance at 340 nm was measured (A1), and after 5 min at 25° C., a second measurement was done (A2).
The GPx activity was calculated as follow:
B=NADPH amount that was decreased between T1 and T2 (in nmol).
T1=Time of the first reading (A1) (minutes).
T2=Time of second reading (A2) (minutes).
V=Pretreated sample volume added into the reaction well (mL).
D=Sample dilution factor.
as §1

[5] = tested on: genes related to oxidative stress; experiment: Oxidative stress PCR array in duodenum and ileum of weaned piglets; format: in vivo; details: duodenum, day 42, vs control group, p=0.019
Procedure: The objective of this study was to evaluate anti-oxidant enzymes supplementation (SOD and CAT) alone and in combination in early weaned piglets, and if these enzymes can potentially alleviate the oxidative stress impact on weaned piglets and consequently improve the growth performance. In the in vivo trial (example 3), plasma samples were collected at day 0 (baseline, weaning moment), day 14 and day 42 of the study for additional analysis. […]
Total RNA was extracted from tissues (stored at −20° C. in RNA later) by lysing tissue with FastPrep® 24 (MP Biomedicals, Illkirch, France), using the phenol-chloroform method (TRIzol reagent; Invitrogen, Invitrogen, Cergy Pontoise, France) followed by purification using RNeasy columns by automated method with the Qiacube HT (Qiagen, Courtaboeuf, France). The concentration of RNA was measured by NanoDrop ND-1000 Spectrophotometer (Thermo Fisher Scientific, Illkirch, France) and the purity was estimated by A260/A280 ratio. RNA integrity was assessed by using the Agilent 2100 Bioanalyzer (Agilent Technologies, Basel, Switzerland). The threshold of the RNA Integrity Number (RIN) was set at 7.5 to validate sufficient quality of the RNAs. […]
as §1

Row | Molecule | SOD specific activity (reference) [1] [U/mg EP] | Gastric stability: pH 3, +pepsin 15 min - residual activity value % ([2]; 15 min) [%] | Gastric stability: pH 3, +pepsin 30 min - residual activity value % ([2]; 30 min) [%] | reactive oxygen metabolites (d-ROM) ([3]; both time point (day 14 and 42)) | plasmatic antioxidant capacity (PAT) ([3]; day 14, p<0.0001 between groups) | FCR [4] | plasma GPx activity (Glutathione peroxidase) | GPX1 gene fold change [5]
1 | r E. coli: commercial Sigma SOD; probably recombinant SOD bovine expressed in Escherichia coli (S9697) | 6108 | 43 | 43 |  |  |  |  | 
2 | B1 |  |  |  | increase | increase | significantly better than NC | significant increase | 1.34
